Test results taken from PMC9273042 (Science Immunology, 2022).

How the values were obtained:
Conditions in all cases: both partners purified
SARS-CoV-2 S 6P trimer = SARS-CoV-2 S 6P trimer (SARS-CoV-2, Wuhan-Hu-1/WA1 type, S-6P, stabilised); assay: cryo-EM structure
[1] = target: soluble RBD (WA1/2020 variant) (SARS-CoV-2, WA1/2020, UniProt P0DTC2); assay: SPR
[2] = target: Trimer Spike (soluble, WA1/2020 variant) (SARS-CoV-2, WA1/2020, UniProt P0DTC2); assay: SPR
RBD, SA variant (Beta) = target: T1, RBD, SA variant (Beta) (SARS-CoV-2, UniProt P0DTC2); assay: ELISA
T1 construct: source: bought: SinoBio

[3] = target: T2, RBD, REF variant (Wuhan-1) (SARS-CoV-2, UniProt P0DTC2); assay: ELISA
T2 construct: source: bought: SinoBio

RBD, UK variant (Alpha) = target: T3, RBD, UK variant (Alpha) (SARS-CoV-2, UniProt P0DTC2); assay: ELISA
T3 construct: source: bought: SinoBio

B1: IMM20184 Fab (Fab, V domains shown)
VH: EVQLVESGGGLVQPGGSLRLSCSASGFTFSSFWMSWVRQAPGKGLEWVATIREDGSEKYYVDSVKGRFSISRDNAKNSLYLQMNSLRAEDTAVYYCARSKWLRGSFDYWGQGTLVTVSS
VL: NFMLTQPHSVSESPGKTVTISCTRRSGSIASNYVQWYQQRPGSAPTTVIYEDNQRPSGVPDRFSGSIDSSSNSASLTISGLQTEDEADYYCQSYDSSNPPGASWVFGGGTKLTVL
notes: Fab of m1
stoichiometry N (SARS-CoV-2 S 6P trimer): 3 Fab:Trimer

B2: IMM20184 (antibody, V domains shown)
VH: B1 VH
VL: B1 VL
Kd [1]: 2.2 nM | koff [1]: 0.00131 s⁻¹ | kon [1]: 595000 M⁻¹ s⁻¹ | Kd [2]: 7.35 nM | koff [2]: 0.000229 s⁻¹ | kon [2]: 31200 M⁻¹ s⁻¹

B3: IMM20190 (antibody, V domains shown)
VH: EVQLVESGGGLVQPGGSLRLSCSASGFTVSSNYMSWVRQAPRKGLEWVSVIYAGGSTFYADSVKGRFTISRDNSKNTLLLQMNSLRAEDTAVYYCARDRGGYLDYWGQGTLVTVSS
VL: DIQMTQSPSSLSASVGDRVTITCRASQGISNYLAWYQQKPGKVPKLLIYAASTLQSGVPSRFSGSGSGTDFTLTISSLQPEDVATYYCQKYNSAPGLTFGGGTKVEIK
Kd [1]: 1.87 nM | koff [1]: 0.000376 s⁻¹ | kon [1]: 202000 M⁻¹ s⁻¹ | Kd [2]: 6.59 nM | koff [2]: 0.000195 s⁻¹ | kon [2]: 29500 M⁻¹ s⁻¹

B4: IMM20190 Fab (Fab, V domains shown)
VH: B3 VH
VL: B3 VL
notes: Fab of m2
stoichiometry N (SARS-CoV-2 S 6P trimer): 3 Fab:Trimer

B5: IMM20253 (antibody, V domains shown)
VH: QVQLVESGGGVVQPGRSLRLSCTASGFTFSTYGMHWVRQAPGKGLEWVAVISYDGSSKHYAESVKGRFTISRDNSNNTLYLQMNRLRAEDTAVYYCARDGQPPGWGNYFDYWGQGTLVTVAS
VL: SYVLTQPPSVSVAPGKTARITCGGNGIGSKSVYWYQQKPGQAPEVVVYDDSDRPSGIPERFSGSNSGNTATLTISRVEAGDEADYYCQVWDSSSDPWVFGGGTKLTVL
Kd [1]: 0.157 nM | koff [1]: 0.000218 s⁻¹ | kon [1]: 1.39e+06 M⁻¹ s⁻¹ | Kd [2]: 1.44 nM | koff [2]: 0.000117 s⁻¹ | kon [2]: 81300 M⁻¹ s⁻¹ | percent inhibition of ACE2 binding (RBD, SA variant (Beta)): ≤ 40% | percent inhibition of ACE2 binding [3]: ≤ 40% | percent inhibition of ACE2 binding (RBD, UK variant (Alpha)): ≤ 40%

B6: IMM20253 Fab (Fab, V domains shown)
VH: B5 VH
VL: B5 VL
notes: Fab of m3
stoichiometry N (SARS-CoV-2 S 6P trimer): 1 Fab:Trimer
